Assay results as given in US20250002998A1.

Assays:
[1] = target: feline FAP in formalin fixed, paraffin embedded feline tissue sections (feline); assay: immunohistochemistry on a formalin fixed, paraffin embedded kidney section of cat #20-01692 with a low level of fibrosis (fibrosis score 1)
[2] = target: feline FAP in formalin fixed, paraffin embedded feline tissue sections (feline); assay: immunohistochemistry on a formalin fixed, paraffin embedded kidney section of cat #20-00774 with a higher level of fibrosis (fibrosis score 3)
[3] = target: feline FAP in formalin fixed, paraffin embedded feline tissue sections (feline); assay: immunohistochemistry on a formalin fixed, paraffin embedded kidney section of cat #20-06613 with a higher level of fibrosis (fibrosis score 3)
[4] = target: feline FAP in formalin fixed, paraffin embedded feline tissue sections (feline); assay: immunohistochemistry on a formalin fixed, paraffin embedded kidney section of cat #20-10270 without fibrosis (fibrosis score 0); the score tells that no FAP was detected in this tissue, not that the antibody fails to bind FAP

cross-reactive anti-FAP monoclonal antibody ab207178 from abcam
FAP score (0-3) [1]: 1 | FAP score (0-3) [2]: 2 | FAP score (0-3) [3]: 2 | FAP score (0-3) [4]: 0
